In US20230124851A1 (INHIBRX LNC, published 2023):

How the values were obtained:
[1] = molecular target: T1, human B7H3 (CD276) on the cell surface (human, UniProt Q5ZPR3 29-534); test: flow cytometry on A375 cells (B7H3+), anti-human IgG APC secondary
T1 construct: B7H3 on A375 and other B7H3-positive or transfected cells
T1 sequence: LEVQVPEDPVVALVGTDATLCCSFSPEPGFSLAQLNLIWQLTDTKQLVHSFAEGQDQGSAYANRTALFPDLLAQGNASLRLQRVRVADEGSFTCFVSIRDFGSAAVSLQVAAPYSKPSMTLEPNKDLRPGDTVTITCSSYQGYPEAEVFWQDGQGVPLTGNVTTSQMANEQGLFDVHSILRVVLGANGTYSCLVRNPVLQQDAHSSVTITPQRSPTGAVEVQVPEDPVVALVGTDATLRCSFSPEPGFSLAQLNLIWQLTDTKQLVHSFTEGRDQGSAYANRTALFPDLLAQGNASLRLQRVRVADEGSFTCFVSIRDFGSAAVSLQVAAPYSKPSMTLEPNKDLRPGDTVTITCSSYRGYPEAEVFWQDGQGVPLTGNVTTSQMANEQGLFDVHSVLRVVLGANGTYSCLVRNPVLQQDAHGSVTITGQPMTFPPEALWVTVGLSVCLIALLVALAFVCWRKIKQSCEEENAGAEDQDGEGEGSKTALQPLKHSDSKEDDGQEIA
Method: (§1) Binding of exemplary B7H3-targeting constrained CD3 engaging constructs set forth in Table E3 to CD3 on the surface of primary T cells or B7H3-expressing cells (A375) was assessed by flow cytometry. The T cells were primary T-cells that were negatively enriched from PBMCs isolated from healthy human donor peripheral blood leukopaks. Bound construct was detected with fluorophore-conjugated secondary antibodies specific for the human Fc (anti-human IgG APC secondary antibody) and binding was measured by flow cytometry. Cells incubated with secondary antibody only served as negative controls. Binding was compared to Dual-affinity Re-targeting Antibody (DART)-monomeric Fc format targeting B7H3 and CD3 (DART-Fc B7H3xCD3; see e.g. WO2017030926A1).

[2] = molecular target: T2, CD3 on the surface of human T cells (human, UniProt P07766 23-207); test: flow cytometry on primary human T cells, anti-human IgG APC secondary
T2 construct: whole, on cells; Part of the CD3/TCR complex on cells; also called CD3 epsilon
Method: as §1

T2 sequence (P07766 23-207): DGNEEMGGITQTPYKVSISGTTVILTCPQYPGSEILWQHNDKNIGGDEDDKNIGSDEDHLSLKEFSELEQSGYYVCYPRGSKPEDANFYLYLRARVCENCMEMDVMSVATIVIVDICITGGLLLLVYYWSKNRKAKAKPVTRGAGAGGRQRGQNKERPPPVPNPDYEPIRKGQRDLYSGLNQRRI

B1: DART-Fc B7H3xCD3 (bispecific antibody)
chain 1: DIQLTQSPSFLSASVGDRVTITCKASQNVDTNVAWYQQKPGKAPKALIYSASYRYSGVPSRFSGSGSGTDFTLTISSLQPEDFATYYCQQYNNYPFTFGQGTKLEIKGGGSGGGGEVQLVESGGGLVQPGGSLRLSCAASGFTFSTYAMNWVRQAPGKGLEWVGRIRSKYNNYATYYADSVKDRFTISRDDSKNSLYLQMNSLKTEDTAVYYCVRHGNFGNSYVSWFAYWGQGTLVTVSSGGCGGGEVAALEKEVAALEKEVAALEKEVAALEKGGGDKTHTCPPCPAPEAAGGPSVFLFPPKPKDTLMISRTPEVTCVVVDVSHEDPEVKFNWYVDGVEVHNAKTKPREEQYNSTYRVVSVLTVLHQDWLNGKEYKCKVSNKALPAPIEKTISKAKGQPREPQVYTLPPSREEMTKNQVSLWCLVKGFYPSDIAVEWESNGQPENNYKTTPPVLDSDGSFFLYSKLTVDKSRWQQGNVFSCSVMHEALHNHYTQKSLSLSPGK
chain 2: QAVVTQEPSLTVSPGGTVTLTCRSSTGAVTTSNYANWVQQKPGQAPRGLIGGTNKRAPWTPARFSGSLLGGKAALTITGAQAEDEADYYCALWYSNLWVFGGGTKLTVLGGGGSGGGGEVQLVESGGGLVQPGGSLRLSCAASGFTFSSFGMHWVRQAPGKGLEWVAYISSDSSAIYYADTVKGRFTISRDNAKNSLYLQMNSLRDEDTAVYYCGRGRENIYYGSRLDYWGQGTTVTVSSGGCGGGKVAALKEKVAALKEKVAALKEKVAALKE
chain 3: not shown
notes: Comparator, an analog of the format of WO2017030926A1; three polypeptide chains; also called B7H3xCD3 DART-Fc
[1]
  binding result: binds

B2: cx2846 (bispecific antibody, not shown: a dimerising Fc or GST)
chain 1: EVQLVESGGGEVQPGGSLRLSCAASGSTFSSYHMSWFRQAPGKQREPVATSHHGGTTNYAGSVKGRFTISRDNAKNTVYLQMNTLRAEDTAVYYCKADHGYQGRGYWGQGTLVTVKPGGSGGGGIEPDIGGSGGSEVQLVESGGGLVQPGGSLRLSCAASGFTFNTYAMNWVRQAPGKCLEWVARIRSKYNNYATYYADSVKGRFTISRDDAKNTLYLQMSSLRAEDTAVYYCVRHGNFGNSYVSWFAYWGQGTLVTVKPEVQLVESGGGEVQPGGSLRLSCAPSERTFSTYTMGWFRQAPGKEREFVAVVNWGGGSKYYAESVKGRFTISRDNAKNTVYLQMSSLRAEDTAVYYCAAGGAYSGPYYDTRQYTYWGQGTLVTVKP
chain 2: GGSGGGGIEPDIGGSGGSQAVVTQEPSLTVSPGGTVTLTCGSSTGAVTTSNYANWVQQKPGQAFRGLIGGTNKRAPGVPARFSGSLLGGKAALTISGAQPEDEADYYCALWYSNHWVFGCGTKLTVL
[2]
  binding result: no binding (tested: 200 nM)

B3: cx3960 (bispecific antibody, not shown: a dimerising Fc or GST)
chain 1: EVQLVESGGGEVQPGGSLRLSCAASGSTFSSYHMSWFRQAPGKQREPVATSHHGGTTNYAGSVKGRFTISRDNAKNTVYLQMNTLRAEDTAVYYCKADHGYQGRGYWGQGTLVTVKPGGSGGGGIEPDIGGSGGSEVQLVESGGGLVQPGGSLRLSCAASGFTFNTYAMNWVRQAPGKCLEWVARIRSKYNNYATYYADSVKGRFTISRDDAKNTLYLQMSSLRAEDTAVYYCVRHGNFGNSYVSWFAYWGQGTLVTVKPQLQLQESGGGLVQAGDSLRLSCAASGFSFGSNVMMWVRQAPGKGPEWVSTIYSSGTGTFYADSVKGRFTISRNNAKNTLYLQMNSLKPDDTAVYYCATSGPVRGWGPRSQGTLVTVKP
chain 2: GGSGGGGIEPDIGGSGGSQAVVTQEPSLTVSPGGTVTLTCGSSTGAVTTSNYANWVQQKPGQAFRGLIGGTNKRAPGVPARFSGSLLGGKAALTISGAQPEDEADYYCALWYSNHWVFGCGTKLTVL
[2]
  binding result: no binding (tested: 200 nM)

B4: cx4908 (bispecific antibody)
chain 1: EVQLVESGGGEVQPGGSLRLSCAASGSTFSSYHMSWFRQAPGKQREPVATSHHGGTTNYAGSVKGRFTISRDNAKNTVYLQMNTLRAEDTAVYYCKADHGYQGRGYWGQGTLVTVKPDKTHTCPPCPAPGGPSVFLFPPKPKDTLMISRTPEVTCVVVDVSHEDPEVKFNWYVDGVEVHNAKTKPREEQYNSTYRVVSVLTVLHQDWLNGKEYKCKVSNKALPAPIEKTISKAKGQPREPQVYTLPPCRDELTKNQVSLWCLVKGFYPSDIAVEWESNGQPENNYKTTPPVLDSDGSFFLYSKLTVDKSRWQQGNVFSCSVMHEALHNHYTQKSLSLSPTGGSGGGGIEPDIGGSGGSEVQLVESGGGLVQPGGSLRLSCAASGFTFNTYAMNWVRQAPGKCLEWVARIRSKYNNYATYYADSVKGRFTISRDDAKNTLYLQMSSLRAEDTAVYYCVRHGNFGNSYVSWFAYWGQGTLVTVKPEVQLVESGGGEVQPGGSLRLSCAASGFSFGSNVMMWVRQAPGKGPEWVSTIYSSGTGTFYAESVKGRFTISRDNAKNTLYLQMSSLRAEDTAVYYCATSGPVRGWGPWSQGTLVTVKP
chain 2: DKTHTCPPCPAPGGPSVFLFPPKPKDTLMISRTPEVTCVVVDVSHEDPEVKFNWYVDGVEVHNAKTKPREEQYNSTYRVVSVLTVLHQDWLNGKEYKCKVSNKALPAPIEKTISKAKGQPREPQVCTLPPSRDELTKNQVSLSCAVKGFYPSDIAVEWESNGQPENNYKTTPPVLDSDGSFFLVSKLTVDKSRWQQGNVFSCSVMHEALHNRYTQKSLSLSPTGGSGGGGIEPDIGGSGGSQAVVTQEPSLTVSPGGTVTLTCGSSTGAVTTSNYANWVQQKPGQAFRGLIGGTNKRAPGVPARFSGSLLGGKAALTISGAQPEDEADYYCALWYSNHWVFGCGTKLTVLEVQLLESGGGEVQPGGSLRLSCAASGFSFSINAMGWYRQAPGKRREFVAAIESGRNTVYAESVKGRFTISRDNAKNTVYLQMSSLRAEDTAVYYCGLLKGNRVVSPSVAYWGQGTLVTVKP
notes: chain 2 ends in the 4-1BB sdAb RH3v5-1
[2]
  binding result: no binding (tested: 200 nM)
